Data set [1] concerns the target T1, nucleolin (Homo sapiens, UniProt P19338).
T1 construct: without the N-terminal acidic stretches domain
Put plainly: Filter-binding assay of 32P-labeled quadruplexes and Nucleolin. Particulars: for Kd: 0.2 nM 32P-labeled quadruplex, read-out: Kd, apparent dissociation constant of nucleolin protein and the nucleic acid ligand. Here is the method:
The assay also was conducted in a filter-binding format. […] The protein-quadruplex mixtures were incubated for 30 min at ambient temperature and filtered through mixed cellulose ester membrane filters (Millipore) with gentle suction. The filters were washed twice with […] of binding buffer, dried and OptiPhase ‘SuperMix’ scintillation cocktail (Perkin Elmer) was added to the wells. Radioactivity was assayed with MicroBeta scintillation counter (Perkin Elmer). Binding curves were constructed and apparent Kd's and Bmax's for the complexes were calculated using the GraphPad Prizm software program (GraphPad Software). In the following table, the nucleic acid ligand is designated in the first column using the nomenclature described herein; the second column provides the nucleotide sequence of the nucleic acid ligand; the third column is the conformation of the ligand as determined by circular dichroism (M is mixed, P is parallel, A is antiparallel, C is complex, SS is single-stranded and ND is not determined); the fourth column is the dissociation constant determined by the filter binding assay of nucleolin protein and the nucleic acid ligand; the fifth column is a Bmax constant determined by the filter binding assay, which is the percent of active nucleic acid ligand in each assay; and the sixth column presents the concentration of Compound A-1 required to dissociate half of the complexed nucleic acid ligand and nucleolin protein, as determined by the EMSA assay described above.

Data set [2] deals with T1, nucleolin. Put plainly: EMSA, relative affinity of nucleic acid ligands for nucleolin. The class given is binding. Details: key: +: weakest nucleolin affinity; ++++: strongest nucleolin affinity. Here is the method: The following assays assessed effects of compounds on interactions between nucleolin and nucleic acid ligands capable of forming quadruplex (QP) and hairpin (HP) secondary structures. Nucleic acid ligands tested were a cMyc QP DNA having nucleotide sequence 5′-[…]-3′ (SEQ ID NO: 176) and a HP pre-rRNA region to which nucleolin binds, having the sequence 5′-[…]-3′ (SEQ ID NO: 177). In the assays, recombinant nucleolin (˜250 nM), which was fused to maltose binding protein and had the sequence under accession number NM_005381 without the N-terminal acidic stretches domain, was incubated with each of the two ^32P-labeled nucleic acid ligands (10 or 250 nM). Nucleolin and the nucleic acid ligand were incubated in the presence or absence of a test compound of Formula A-1, B-1, C-6 or C-7 in an incubation buffer (12.5 mM Tris, pH 7.6, 60 mM KCl, 1 mM MgCl2, 0.1 mM EDTA, 1 mM DTT, 5% glycerol, 0.1 mg/ml BSA) for 30 minutes at room temperature. Structures for A-1 and B-1 are shown above and structures for C-6 and C-7 are shown hereafter: [drawing 17] The resulting complexes were separated on a 6% DNA retardation gel using 0.5× TBE with 20 mM KCl as a running buffer (i.e., electrophoresis mobility shift assay (EMSA)).
The assay also was conducted using nucleic acid ligands derived from human ribosomal DNA. Sequences of these nucleic acids are shown in the preceding example. […]
(A gel shift assay detects complexes by their altered migration in electrophoresis.)

T1 sequence (P19338 284-710 limits assumed): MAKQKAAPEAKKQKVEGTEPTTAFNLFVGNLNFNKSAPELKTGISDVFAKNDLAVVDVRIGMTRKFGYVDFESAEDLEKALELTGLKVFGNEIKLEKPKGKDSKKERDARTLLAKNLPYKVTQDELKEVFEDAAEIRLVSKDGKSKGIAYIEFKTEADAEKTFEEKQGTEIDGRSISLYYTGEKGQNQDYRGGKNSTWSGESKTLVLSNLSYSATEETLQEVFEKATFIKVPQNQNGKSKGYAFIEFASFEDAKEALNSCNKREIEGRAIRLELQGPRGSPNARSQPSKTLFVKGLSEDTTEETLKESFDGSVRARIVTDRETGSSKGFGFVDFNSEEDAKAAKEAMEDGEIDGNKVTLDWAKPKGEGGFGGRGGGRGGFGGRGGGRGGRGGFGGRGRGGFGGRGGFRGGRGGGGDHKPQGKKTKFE

B1: AGGGCGGCGGGCGGGGAAGAGGGCACAGACGGGCGAGGGCCGGGGACCGCGAGGGCAAGGGCACCCGGG (nucleic acid, listed as Homo sapiens)
chain: AGGGCGGCGGGCGGGGAAGAGGGCACAGACGGGCGAGGGCCGGGGACCGCGAGGGCAAGGGCACCCGGG
modifications: DNA, backbone and methylation of C not given here
In the case of B1, in data set [1], the “Bmax, percent of active nucleic acid ligand” value is 55% and the Kd was 700 pM.

B2: CGGAGGGCGCGCGGGTCGGGGCGGCGGCGGCGGCGGCGGTGGCGGCGGCGGCGGGGGCGGCGGG (nucleic acid, listed as Homo sapiens)
chain: CGGAGGGCGCGCGGGTCGGGGCGGCGGCGGCGGCGGCGGTGGCGGCGGCGGCGGGGGCGGCGGG
modifications: listed as DNA, chemistry not given here
As for B2, in data set [2], the “Affinity for Nucleolin (relative)” value is given as “++++”. Further, in data set [1], the “Bmax, percent of active nucleic acid ligand” value is recorded as 100% and the Kd was determined as 300 pM.

The values above are taken from US20070117770A1, “Human ribosomal DNA (rDNA) and ribosomal RNA (rRNA) nucleic acids and uses thereof” (Cylene Pharmaceuticals, Inc., priority 2005, published 2007).
